For series [1], the system named is Cc1cc(=O)oc2cc(NC(=O)[C@H](CCCNC(=N)N)NC(=O)[C@H](CCCNC(=N)N)NC(=O)OCc3ccccc3)ccc12. Nature of the series: purified protein. The note with it: 100 mM sodium acetate pH 5.0, 10 mM DTT, 37 °C, 20 nM enzyme, substrate range 0.1–100 μM.
Text: (§1) fluorogenic AMC release, Michaelis-Menten on malapain-2 (MP-2)
Series [2] deals with Cc1cc(=O)oc2cc(NC(=O)[C@H](CCCNC(=N)N)NC(=O)[C@H](CC(C)C)NC(=O)OCc3ccccc3)ccc12. Kind of series: purified protein. The note with it: 100 mM sodium acetate pH 5.0, 10 mM DTT, 37 °C, 20 nM enzyme, substrate range 0.1–100 μM.
Text: as §1

On to malapain-2 (MP-2) (Plasmodium malariae), for which the Km – broadly, the substrate concentration at which the rate is half of its maximum – is reported as 846.4 ± 0.6 µM in series [1] and 111.2 ± 1.2 µM in series [2].

Values taken from publication PMC12617615, “Decoding substrate recognition in malapain-2 through structural and mutational insights” (Computational and Structural Biotechnology Journal, 2025).
